Patent US20160264664A1

Experiments:
mouse P2X7 (mouse) = molecular target: T1, mouse P2X7 (mouse) (UniProt Q9Z1M0); assay: cell-based or functional assay
T1 sequence: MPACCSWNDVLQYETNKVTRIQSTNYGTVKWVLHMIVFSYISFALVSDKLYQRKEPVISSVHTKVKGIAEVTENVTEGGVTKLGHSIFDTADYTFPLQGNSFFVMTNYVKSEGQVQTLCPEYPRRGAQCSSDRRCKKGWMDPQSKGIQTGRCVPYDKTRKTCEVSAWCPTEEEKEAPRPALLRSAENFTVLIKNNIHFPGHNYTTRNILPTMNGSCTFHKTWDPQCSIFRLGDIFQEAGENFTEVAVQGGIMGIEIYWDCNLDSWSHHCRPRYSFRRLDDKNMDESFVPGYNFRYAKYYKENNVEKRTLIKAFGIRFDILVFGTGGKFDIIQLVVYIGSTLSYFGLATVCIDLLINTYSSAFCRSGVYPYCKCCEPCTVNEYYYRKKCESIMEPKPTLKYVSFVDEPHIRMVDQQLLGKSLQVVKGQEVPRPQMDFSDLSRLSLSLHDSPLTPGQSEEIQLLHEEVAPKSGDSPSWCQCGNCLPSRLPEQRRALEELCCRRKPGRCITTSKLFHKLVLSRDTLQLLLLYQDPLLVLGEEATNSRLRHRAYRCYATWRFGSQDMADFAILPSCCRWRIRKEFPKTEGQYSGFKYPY

[1] = molecular target: plasma-derived HBsAg particles (Biodesign) (hepatitis B virus); assay: SPR (Biacore), periplasmic extract over immobilised plasma-derived HBsAg particles, 1:1 dissociation model

B1: 8G11-35GS-8G11 (VHH)
chain: EVQLVESGGGLVQAGGSLRLSCAASGNFFRVNTMAWYRQAPGKQRELVADITRGDRTNYADTVNGRFTISRDNVRNTVYLQMNGLRPEDTAAYYCYAVIELGVLEPRDYWGQGTQVTVSSGGGGSGGGGSGGGGSGGGGSGGGGSGGGGSGGGGSEVQLVESGGGLVQAGGSLRLSCAASGNFFRVNTMAWYRQAPGKQRELVADITRGDRTNYADTVNGRFTISRDNVRNTVYLQMNGLRPEDTAAYYCYAVIELGVLEPRDYWGQGTQVTVSS
**Q.** What does the source list for B1?
**A.** IC50, CD62L shedding at 20 µM NAD (mouse P2X7 (mouse)): 0.52 nM; IC50, CD62L shedding at 100 µM ATP (mouse P2X7 (mouse)): 0.2 nM; potency increase vs. monovalent 8G11 (ATP) (mouse P2X7 (mouse)): 84 fold; potency increase vs. monovalent 8G11 (NAD) (mouse P2X7 (mouse)): 146 fold

B2: HBSAGPMP2E12 (VHH)
VHH: EVQLVESGGGLVQAGGSLRLSCAASGRSISEYAMGWFRQAPGQEREFVASISTSGGSTTYADSVKGRFIISRDNAKNTVYLQMNSLKPEDTAVYYCARYNGWMYYAGTMGVHFGQGTQVTVSS
**Q.** B2 was tested. Which koff [1] did it give?
**A.** 0.0013 s⁻¹

B3: 13A7-35GS-13A7 (VHH)
chain: EVQLVESGGGLVQPGESLRLSCTASRFMLDYYDIGWFRQAPGKEREGVSCRFTNDGSTAYADSVKGRFTISRDIVKHTVYLQMNSLQPEDTAVYYCAAGPLTKRRQCVPGDFSMDFWGEGTLVTVSSGGGGSGGGGSGGGGSGGGGSGGGGSGGGGSGGGGSEVQLVESGGGLVQPGESLRLSCTASRFMLDYYDIGWFRQAPGKEREGVSCRFTNDGSTAYADSVKGRFTISRDIVKHTVYLQMNSLQPEDTAVYYCAAGPLTKRRQCVPGDFSMDFWGEGTLVTVSS
**Q.** B3 was tested. Which IC50, CD62L shedding at 20 µM NAD (mouse P2X7 (mouse)) did it give?
**A.** 0.3 nM

**Q.** What about the IC50, CD62L shedding at 100 µM ATP (mouse P2X7 (mouse)) of the same binder?
**A.** 0.1 nM

**Q.** And the potency increase vs. monovalent 13A7 (ATP) (mouse P2X7 (mouse))?
**A.** 9 fold

**Q.** And the potency increase vs. monovalent 13A7 (NAD) (mouse P2X7 (mouse))?
**A.** 23 fold

B4: HBSAGPMP2E7 (VHH)
VHH: EVQLVESGGGLLQAGGSLRLSCAASERAFIIYGKAWFRQAPGKEREFVAGINWNGGDLHYADSVKGRFTISRDNTNNVVYLQMNSLKSEDTAVYYCAVRRGTAYETDVSSYEWGTQVTVSS
**Q.** Which koff [1] does the source give for B4 here?
**A.** 0.00088 s⁻¹

B5: 14D5-35GS-14D5 (VHH)
chain: EVQLVESGGGLVQAGGSLRLSCAASGSPISSYAMGWYRQAPGKPRELVARIYTGGTAWYEDSVKGRFTISRDNAQNTVYLQMNSLKSEDTAVYYCHGRVRYDYWGQGTQVTVSSGGGGSGGGGSGGGGSGGGGSGGGGSGGGGSGGGGSEVQLVESGGGLVQAGGSLRLSCAASGSPISSYAMGWYRQAPGKPRELVARIYTGGTAWYEDSVKGRFTISRDNAQNTVYLQMNSLKSEDTAVYYCHGRVRYDYWGQGTQVTVSS
**Q.** B5 was tested. Which EC50, enhancement of CD62L-ectodomain shedding at 1.5 µM NAD (mouse P2X7 (mouse)) did it give?
**A.** 0.06 nM

**Q.** What about the EC50, enhancement of CD62L-ectodomain shedding at 33 µM ATP (mouse P2X7 (mouse)) of the same binder?
**A.** 0.1 nM

**Q.** And the increase in potency vs. monovalent 14D5 (ATP-induced shedding) (mouse P2X7 (mouse))?
**A.** 220 fold

**Q.** And the increase in potency vs. monovalent 14D5 (NAD-induced shedding) (mouse P2X7 (mouse))?
**A.** 40 fold
